Experimental data reported in the DeepSol protein solubility set.

test: soluble on expression in E. coli; label from the status in PepcDB or PDB records

| Sequence | soluble on expression in E. coli |
| --- | --- |
| MPRLFLTSDLDSFPVTPQGCSVTLACGVRLQFPAGATATPITIRYRLLLPEPGLVPLGPHDALLSHVLELQPHGVAFQQDVGLWLLFTPPQARRCREVVVRTRNDNSWGDLETYLEEEAPQRLWAHCQVPHFSWFLVVSRPVSNACLVPPEGTLLCSSGHPGVKVIFPPGATEEPRRVSMQVVRMAGRELQALLGEPEAAVSPLLCLSQSGPPSFLQPVTVQLPLPSGITGLSLDRSRLHLLYWAPPAATWDDITAQVVLELTHLYARFQVTHFSWYWLWYTTKNCVGGLARKAWERLRLHRVNLIALQRRRDPEQVLLQCLPRNKVDATLRRLLERYRGPEPSDTVEMFEGEEFFAAFERGIDVDADRPDCVEGRICFVFYSHLKNVKEVYVTTTLDREAQAVRGQVSFYRGAVPVRVPEEAEAARQRKGADALWMATLPIKLPRLRGSEGPRRGAGLSLAPLNLGDAETGFLTQSNLLSVAGRLGLDWPAVALHLGVSYREVQRIRHEFRDDLDEQIRHMLFSWAERQAGQPGAVGLLVQALEQSDRQDVAEEVRAVLELGRRKYQDSIRRMGLAPKDPALPGSSAPQPPEPAQA | soluble |
| MGSDKIHHHHHHMENIESSFIDLPNPRKDIEDLQPYSAPLEGRRNLLRLDFNENTIGPSPLVIKSLREISRDEISAYPEYSGLKEKVVESLIKKNSNVNINSSEVGIFNGVDAAINAIFHAYGNFDDLMLTTLPTFGYYTPCAQMRGMQIKAIPYEGEGFQYPFDSICEFLTQNNPKILLICNPNNPTGTRLSPERIIEISKLSSKTLVVVDELYEAFTGDSVLPFLNFQTTPNLVVLRSLSKTAGLASLRIGFAIGHSKVINIVNRVTGPYDVNSFAVIAAFAALNDQSYIDSYVQEVLEARNWIKDQFEKHHVKHHIDGGNYFLLWPKSKPQLVEQKLKSSGILIRNMDKKKNLKGSIRVSIGTIDQMKRFWSAFRIVDEV | not soluble |
| MARILAIDDEDGILYIIKSALEKEGHEVTAVSNPLTIPKEKFCHYDLILLDVMMPEIDGFTLCKEIRDFVDSPIVFLTAKTMEKDLITGLSLGGDDYITKPFGIGELRARVSAHVRREHREKQNAFFLSGLTFHLSCKEIWYDDTSIAFTKSEYGICEYLALNHGQVFSREKIYENVFGYEGESDNQVIVEHIKNIRHKLSKYGMNPIETVWGIGYKWRK | not soluble |
| MSLNRVSHPLTYENFKTSSAEQESKITKLLENLYKGGKRIVKLRNDPTGVTHAIRLDNDIFKLNVYIKNIDTSKSNLRYTEGYLQSLTNILTRAKEIAIQGASGTYESDDKKMISKEVNALLEDVVAIANAKGPDGYSIFSGTKIDSEAFKVTRENKISKTSKDGAGPQIIKVEYNGNQAEKKTEVYNDIHMSNNYPGNVIFFLQNQNIISSINTNGFAVKENTKIYIDNIEIGLTAGDTALDIVAKINESSAPVEASIDPVLNSLSIKTTTPHQIWITEEKESNVLQTLGILTKNNDTKLPPYNLSSSTEVRSRSIFDALIELRDTLYNNKEELVGSRSLAEIDESLKRLLISVADLGAKENRLDRSYERISKEAADMKEDMIQYTDEGHHHHHH | soluble |
| GAMVVSPAGADRRIPTWASRVVSGLARDRPVVVTKEDLTQRLTEAGCGRDPDSAIRELRRIGWLVQLPVKGTWAFIPPGEAAISDPYLPLRSWLARDQNAGFMLAGASAAWHLGYLDRQPDGRIPIWLPPAKRLPDGLASYVSVVRIPWNAADTALLAPRPALLVRRRLDLVAWATGLPALGPEALLVQIATRPASFGPWADLVPHLDDLVADCSDERLERLLSGRPTSAWQRASYLLDSGGEPARGQALLAKRHTEVMPVTRFTTAHSRDRGESVWAPEYQLVDELVVPLLRVIGKA | soluble |
| MGSDKIHHHHHHMVNEELLWVLWQHLLFSVESLHTTTGEPIIIKHTGTLNVHAGPDFSLAKLCIDGIEWAGDVEIHTKASDWYKHKHQHNPAYESVILHVVYEADIDITRADGSCIPVLELKDRIHTMHLETYGYLMEEKKTVPCAHAIHEIPAIVMEQMKQRVLIERLERKTDGLFQLLTDQPNWKMIAGRLIFKSFGTGLNDYLFERMAQQMDFNKLDRLSYAPKSIEALFFGCSGMLEKDWADDFPAALKKEYTYLQRTQTVTCTIDSSEWKFLRTRPVNFPTIRLAQLAALFSNTDWYASFSSITSVKYAEDFLNVSLSDYWLNHYRFDVLSKPAPKHIGKTFANTFLLNAYIPFLVLHARYYKNETTWEQVFEMLDTIQAEDNAITRVWKELGIRMDTGFDSQSGLELYKMYCTHKKCLSCSIGFSILRNASVSAVVK | not soluble |
| SLNSLVSWQLLLFLCATHFGEPLEKVASVGNSRPTGQQLESLGLLAPGEQSLPCTERKPAATARLSRRGTSMSPPPESSGSPQQPGLSAPHSRQIPAPQGAVMVQREKDLPNYNWNSFGLRFGKREAAPGNHGRSAGR | soluble |
| MIDLAKDHLKKVLSLCGANRDCEYYPCHYENQSCLWCYCPFYPCEDENLGEFVKRKDGSLIWSCMKCNWIHKPEIASEVLKEITELTKDKKINDSIEFIDNHEILMNIKRRVEEKLGKDNSV | not soluble |
| AIAFILSAQRLSGTQVFRRLAEGCTGYSVSSGCRQRRRCCPGAPQRPRRVRVNALQLQSGLADPLDPKSEAEVREHLRSNSPAERALGINYARYLDESTRYDILLEMMEDTDPQVRYAAVTQLATVGSHDRQRTLKAVRKILWNTEEDASVRAGALTCWAVSGSTRPSQTWKSSSTSRRTGWCGSASSLL | soluble |
| MDWGMQSRLSWIFNPKTGKTVMLAFDHGYFQGPTIGLERIDINIAPLFEHADVLMCTRGILRSVVPPATNKPVVLRASGANSILAELSNEAVALSMDDAVRLNSCAVAAQVYIGSEYEHQSIKNIIQLVDAGMKVGMPTMAVTGVGKDMVRDQRYFSLATRIAAEMGAQIIKTYYVEKGFERIVAGCPVPIVIAGGKKLPERETLEMCWQAIDQGASGVDMGRNIFQSDHPVAMMKAVQAVVHHNETADRAYELYLSEKQ | not soluble |
| GHMIARGKFRSLTLINWNGFFARTFDFDELVTTLSGGNGAGKSTTMAGFVTALIPDLTLLNFRNTTEAGSTSSSRDKGLYGKLKAGVCYAVLETVNSRAQRIITGVRLQQIAGRDKKVDIRPFSLQNVPMTDSVISLFTEQVANKARVLSLNDLKEKFEETAVTFKPYHSITDYHSFMFDLGILPKRLRSSSDRNKFYKLIEASLYGGISSVITKSLRDYLLPENSGVRQAFQDMEAALRENSGGSGGSISAESVANILRKTIQREQNRILQLNQGLQNIAFGQVKGVRLVVNIRDTHSILLNALSDQHEQHKDLFESQKLSFSEALAMLYKRINPHIELGQRMPQTIGEELLDYRNYLDLEVETLRGAYGWMRAESSALSTGEAIGTGMSILLMVVQSWEEESRRMRAKDILPCRLLFLDQAARLDAMSINTLFELCERLDMQLLIAAPENISPERGTTYKLVRKILANQEYVHVVGLKGFG | soluble |
| MIQFSINRTLFIHALNTTKRAISTKNAIPILSSIKIEVTSTGVTLTGSNGQISIENTIPVSNENAGLLITSPGAILLEASFFINIISSLPDISINVKEIEQHQVVLTSGKSEITLKGKDVDQYPRLQEVSTENPLILKTKLLKSIIAETAFAASLQESRPILTGVHIVLSNHKDFKAVATDSHRMSQRLITLDNTSADFMVVLPSKSLREFSAVFTDDIETVEVFFSPSQILFRSEHISFYTRLLEGNYPDTDRLLMTEFETEVVFNTQSLRHAMERAFLISNATQNGTVKLEITQNHISAHVNSPEVGKVNEDLDIVSQSGSDLTISFNPTYLIESLKAIKSETVKIHFLSPVRPFTLTPGDEEESFIQLITPVRTN | soluble |
| MGHHHHHHSHMFNVMVDAKAQSTKLCSMEMGQEFAKMWHQYHSKIDELIEETVKEMITLLVAKFVTILEGVLAKLSRYDEGTLFSSFLSFTVKAASKYVDVPKPGMDVADAYVTFVRHSQDVLRDKVNEEMYIERLFDQWYNSSMNVICTWLTDRMDLQLHIYQLKTLIRMVKKTYRDFRLQGVLDSTLNSKTYETIRNRLTVEEATASVSEGGGLQGISMKDSDEEDEEDD | not soluble |
| MSSFFPLPPAIGKSTGCGVRDESQSLVVWAIEDYSIPESIDPDMINLKIETAIVKKFNLRSSAVVTTWIFGSAENAWLAKSKVKLWESEFRVSLHKGGDKRARLNMMLADVIYYVWNWKAPTNLAVLTENKEEMEQDPKFFRFRQALENKGFFVAVEHPETLINQETAVEDPPDDSPIPYYPSDNPQKLAFWYKEDSEAYRAKYKQVRGTKRTI | soluble |
| MSLKITNVQTQKVLVPLKKPLITAIHKTDSVGVVIVKIETDTGLVGENYVFALNKDRLDVFDAMIKSLTQFLIGNNPVYVEKIWQQMWQDCNPVGQKGIAISAISAIDTALWDLIGKQANMPLYQVFGACRDKVKTYASSGLWLSSNIDELIEEAHGFIDQGFRSMKLRLGKPDLKEDVERARALRASVGDDIEILTDANQSLTPRQAIALGRQLEDLNIAWLEEPVPAHDLAGHNRVLEAINIPVASGETDYTRFGMKDMLDHKAVDILMPDLQRIGGLSEFRKAAALASAYHIPVSSHIFTEQSLSIAGSADNCISVEHVDWFAPLYQEKIVINDGFIDMPMGAGIGFNFDYDFIDQNLIEGHHHHHH | soluble |
| MPFWGAGIKILHISEDFRTVKVRLKLRWWNKNANRTQYGGSIFSLTDPIYSLMLMGILREEYYVWDKEASINFIKPGQSDLFAEFEITDGMLDEIYQMTRNGEKCFPEFITHVKDKQGNVVSEVQRKLYVRKLEHHHHHH | not soluble |
| MGSDKIHHHHHHMFSGIAHCADCGSKLYYCTTRYFETRHDHFRCSASQKAVDPCTSHFIRAVVLEEMVLAHMRYVIGFVQRYEDSFRVSIEAERSTEIQKELSAKRKQIAQSQKRVDDLDVLFRKVYEDNASGKLTDERFMQLSRGYDLEQKTLRQMITMLEKEIDQQEQKTTQVEDFIAKCKRYSSLETLTPAILNDLVIKVFVEAPDKSTGKRRQGIHISYNLVGILPPLERFQPVVVERPNKEKAETA | not soluble |
| MNILLANPRGFCAGVDRAISIVELALEVHGAPIYVRHEVVHNRFVVDDLKAKGAIFVEELDEVPDSAIVIFSAHGVSQAVRQEAKRRGLKVFDATCPLVTKVHMQVARASKKGTKAILIGHQGHPEVIGTMGQYYNEQAGIFLVETVEDIANLPIHHHEDLTFMTQTTLSVDDTSGMIEALKNKYPAIQGPRKNDICYATTNRQQAVRELAKQAQLVLVVGSKNSSNSNRLAELASRMGVLAKLIDGPQDILPEWLDNVETIGITAGASAPEILVQSVVAHLQTLGATSVANLVGCEENMVFEVPKELRVREVKMAGDPLEHHHHHH | not soluble |
| MVSFKRYELPPLPYNYNALEPYIIEEIMKLHHQKHHNTYVKGANAALEKIEKHLKGEIQIDVRAVMRDFSFNYAGHIMHTIFWPNMAPPGKGGGTPGGRVADLIEKQFGGFEKFKALFSAAAKTVEGVGWGVLAFDPLTEELRILQVEKHNVLMTAGLVPILVIDVWEHAYYLQYKNDRGSYVENWWNVVNWDDVEKRLEQALNNAKPLYLLPQ | soluble |
